In patent US20180369344:

Biological target: alpha1 antitrypsin (AAT), P01009
Sequence (P01009 whole entry, looked up): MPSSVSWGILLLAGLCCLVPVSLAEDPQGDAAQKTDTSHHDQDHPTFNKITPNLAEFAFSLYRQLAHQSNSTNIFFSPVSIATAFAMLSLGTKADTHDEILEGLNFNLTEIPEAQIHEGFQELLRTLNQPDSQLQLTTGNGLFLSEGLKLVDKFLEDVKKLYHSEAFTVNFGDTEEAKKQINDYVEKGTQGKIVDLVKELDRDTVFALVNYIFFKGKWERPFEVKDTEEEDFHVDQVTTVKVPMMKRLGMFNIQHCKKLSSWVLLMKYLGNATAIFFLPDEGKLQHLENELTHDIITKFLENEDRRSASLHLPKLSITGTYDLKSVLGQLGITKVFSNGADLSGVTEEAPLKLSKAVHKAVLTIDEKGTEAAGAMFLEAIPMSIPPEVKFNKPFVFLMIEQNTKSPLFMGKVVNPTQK

B1: wildtype Cela2a (protein)
chain: VVGGEEARPNSWPWQVSLQYSSNGKWYHTCGGSLIANSWVLTAAHCISSSRTYRVGLGRHNLYVAESGSLAVSVSKIVVHKDWNSNQISKGNDIALLKLANPVSLTDKIQLACLPPAGTILPNNYPCYVTGWGRLQTNGAVPDVLQQGRLLVVDYATCSSSAWWGSSVKTSMICAGGDGVISSCNGDSGGPLNCQASDGRWQVHGIVSFGSRLGCNYYHKPSVFTRVSNYIDWINSVIANN
cleavage of alpha1-antitrypsin: Cela2a cleaves alphal-antitrypsin.
